Data from patent publication US20230374083A1.

Tests used:
[1] = target: trastuzumab; experiment: cell-based or functional assay
[2] = target: human IVIg (an intravenous human immunoglobulin)
[3] = target: IgG1 in the sera of humans
[4] = target: IgG1 in the sera of mice

Row | Molecule | cleavage of human IgG1, SDS-PAGE of cleavage products (fold of wild-type IdeE) [1] | further results
1 | IdeE A59L (enzyme) | > 2 | 
2 | IdeE A59V (enzyme) | > 2 | 
3 | IdeE E97D (enzyme) | > 2 | 
4 | IdeE R280H (enzyme) | > 2 | 
5 | IdeE T8D (enzyme) | > 2 | 
6 | IdeE T8W (enzyme) | > 2 | 
7 | IdeE T24A (enzyme) | > 2 | 
8 | E97D_del18 (protein) MITSVWTKGVTPLTPEQFRYNNEDVIHAPYLAHQGWYDITKAFDGKDNLLCGAATAGNMLHWWFDQNKTEIEAYLSKHPDKQKIIFNNQELFDLKAAIDTKDSQTNSQLFNYFRDKAFPNLSARQLGVMPDLVLDMFINGYYLNVFKTQSTDVNRPYQDKDKRGGIFDAVFTRGDQTTLLTARHDLKNKGLNDISTIIKQELTEGRALALSHTYANVSISHVINLWGADFNAEGNLEAIYVTDSDANASIGMKKYFVGINAHRHVAISAKKIEGENIGAQVLGLFTLSSGKDIWQKLSHHHHHH |  | cleavage of human IVIg in mouse serum or plasma in vitro, non-reducing SDS-PAGE [2]: E97D_del18 can effectively cleave human IVIg in both the sera and plasmas of mice; cleavage of serum IgG in vitro, reducing SDS-PAGE (25 kD Fc fragment) [3]: E97D_del18 can effectively and specifically cleave IgG1 in the sera of humans; cleavage of serum IgG in vitro, reducing SDS-PAGE (25 kD Fc fragment) [4]: has very low or no activity of cleaving IgG1 in the sera of mice
